The source of these data is article PMC2191085.

Test [1] addresses CD2 on human PBLs (human (endogenous in PBLs)) (UniProt P06729).
Test [2] has as its target CD2 on Jurkat cells (human (endogenous in Jurkat)) (UniProt P06729). The experiment in a line: inhibition of cell rosetting.

Take “LFA3TIP (first domain-LFA-3/IgG1 fusion protein) (Fc fusion)”: the inhibition of T cell proliferation in response to HBsAg, LFA3TIP at 2 ug/ml in test [1] is 85%.

On to “multimeric phosphoinositol-linked LFA-3 (PI-LFA-3) (ligand)”, for which the fold lower concentration than LFA3TIP for inhibition of rosetting in test [2] stood at 300 fold.
